According to publication PMC5956149:

Biological target: GFP-tagged MtrB (cytosolic catalytic domain of MtrB with GFP downstream) (Mycobacterium tuberculosis)
Experiment: MST

Substance | Kd [nM]
MtrB wild type (cytosolic catalytic domain) (domain or fragment) | 1170
MtrB^H305Q (phosphorylation site mutant, cytosolic catalytic domain) (domain or fragment) | 410
MtrB^N419D (mutant defective in ATP binding, cytosolic catalytic domain) (domain or fragment) | 770
